From IntAct's records for PubMed 26948053

B1: N-terminal EF-hand calcium-binding protein 3 (Homo sapiens), Q96P71-2 (parent)
chain: MACAGLLTVCLLRPPAPQPQPQTPRHPQLAPDPGPAGHTLFQDVFRRADKNDDGKLSFEEFQNYFADGVLSLGELQELFSGIDGHLTDNLETEKLCDYFSEHLGVYRPVLAALESLNRAVLAAMDATKLEYERASKVDQFVTRFLLRETVSQLQALQSSLEGASDTLEAQAHGWRSDAESVEAQSRLCGSRRAGRRALRSVSRSSTWSPGSSDTGRSSEAEMQWRLQVNRLQELIDQLECKAPRLEPLREEDLAKGPDLHILMAQRQVQVAEEGLQDFHRALRCYVDFTGAQSHCLHVSAQKMLDGASFTLYEFWQDEASWRRHQQSPGSKAFQRILIDHLRAPDTLTTVFFPASWWIMNNN
partner: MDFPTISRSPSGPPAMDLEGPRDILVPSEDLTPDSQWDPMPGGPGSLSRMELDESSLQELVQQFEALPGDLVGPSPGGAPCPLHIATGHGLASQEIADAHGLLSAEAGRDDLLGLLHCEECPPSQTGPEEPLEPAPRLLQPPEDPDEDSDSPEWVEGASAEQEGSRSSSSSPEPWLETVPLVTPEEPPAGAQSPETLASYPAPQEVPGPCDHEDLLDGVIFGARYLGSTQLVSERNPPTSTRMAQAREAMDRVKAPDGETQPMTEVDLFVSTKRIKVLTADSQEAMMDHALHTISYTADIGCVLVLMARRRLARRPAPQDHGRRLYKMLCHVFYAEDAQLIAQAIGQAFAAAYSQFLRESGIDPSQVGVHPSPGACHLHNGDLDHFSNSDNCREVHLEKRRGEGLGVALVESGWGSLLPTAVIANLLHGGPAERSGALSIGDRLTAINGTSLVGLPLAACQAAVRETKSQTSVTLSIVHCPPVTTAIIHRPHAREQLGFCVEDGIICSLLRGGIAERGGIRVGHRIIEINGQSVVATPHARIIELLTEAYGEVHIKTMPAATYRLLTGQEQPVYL

Variants of: B1
Settings: with apba3_human APBA3, O96018

Q: H324A was tested. Which “effect of a mutation on the interaction” value did it give?
A: with no effect
